Assay [1] concerns the target T1, Human GPA33 on GPA33+ colorectal cancer cell lines (Colo 205, LS 174T, SW 1222) (human, UniProt Q99795 22-319).
T1 construct: Endogenous GPA33 on human colorectal cancer cell lines; also called surface human GPA33; GPA33+ tumor cell lines
T1 sequence: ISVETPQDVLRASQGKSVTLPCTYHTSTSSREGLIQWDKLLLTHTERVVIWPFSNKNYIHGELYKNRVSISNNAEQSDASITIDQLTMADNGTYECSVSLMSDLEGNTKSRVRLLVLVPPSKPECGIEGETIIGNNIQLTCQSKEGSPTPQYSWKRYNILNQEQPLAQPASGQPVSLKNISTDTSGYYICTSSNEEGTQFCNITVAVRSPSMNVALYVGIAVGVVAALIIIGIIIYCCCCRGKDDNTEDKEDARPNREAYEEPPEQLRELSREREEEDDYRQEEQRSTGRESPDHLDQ
In words: FACS titration on Colo205 cells, geometric mean MFI.

In assay [2] the target is T1, Human GPA33 on GPA33+ colorectal cancer …. In words: FACS titration on LS174T cells, geometric mean MFI [Cont.].
Assay [3] has the same target. Nature of the assay: FACS titration on SW1222 cells, geometric mean MFI [Cont.].
Assay [4] deals with T2, Human GPA33 (recombinant protein, Novoprotein) (human, UniProt Q99795 22-235).
T2 construct: Bought recombinant protein immobilized on a CM5 chip; also called GPA33 antigen; tumor antigen GPA33
T2 sequence: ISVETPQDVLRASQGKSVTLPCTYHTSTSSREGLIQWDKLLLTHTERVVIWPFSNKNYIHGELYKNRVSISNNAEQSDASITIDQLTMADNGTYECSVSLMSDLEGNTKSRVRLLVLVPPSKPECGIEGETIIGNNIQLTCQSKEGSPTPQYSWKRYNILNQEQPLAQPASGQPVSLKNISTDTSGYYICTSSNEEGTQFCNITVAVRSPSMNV
In words: SPR (Biacore) on immobilized GPA33, 25 C per legend paragraph 44; two-state fit. As for the experimental part:
(§1) SPR analysis. Human GPA33 (Novoprotein, Summit, NJ) was immobilized on CM5 chips. Five concentrations of 2-fold serially diluted huA33 IgG1 or huA33-BsAbs (starting at 20 nM) were flowed over the chip using a Biacore™ T100 system (GE Healthcare, Chicago, IL). Binding kinetics of huA33 were measured at 25° C. and binding kinetics of huA33-BsAbs were measured at both 25° C. and 37° C. The sensorgrams were fitted with two state binding model for both to derive kinetic parameters.

Assay [5] has as its target T2, Human GPA33 (recombinant protein, …). Nature of the assay: SPR (Biacore), human GPA33 immobilised on the chip; KD relative to that of BC015. The method, boiled down:
(§2)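 Recombinant human GPA33 (Novoprotein) was immobilised on a CM5 sensor chip, and antibodies were injected at five concentrations in 2-fold serial dilutions from 20 nM. Affinity (KD) was determined by surface plasmon resonance on a Biacore system, with kinetic fitting of the sensorgrams giving rate constants and KD. Every KD is reported as a ratio to the KD of a reference molecule.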
Background: In SPR one partner is held on a chip, and binding of the other changes the refractive index at the surface.

For assay [6] the target is unchanged. In words: SPR (Biacore) on immobilized GPA33, 25 C per legend paragraph 44; column ka1 of the two-state fit. As for the experimental part: as §1
Assay [7] has the same target. Nature of the assay: SPR (Biacore) on immobilized GPA33, 25 C per legend paragraph 44; column kd1 of the two-state fit. The method, then:
as §1

The target is the same in assay [8]. In words: SPR (Biacore), human GPA33 immobilised on the chip; two-state fit (ka1, kd1, ka2, kd2); temperature not given on the sheet. As for the experimental part: as §1
Assay [9] shares this target. Nature of the assay: SPR (Biacore), human GPA33 immobilized on CM5 chip, IgG format. The method, then: as §1
For assay [10], the target named is T1, Human GPA33 on GPA33+ colorectal cancer …. In words: cell binding to LS174T Luc cells; IgG format.
For assay [11] the target is unchanged. In words: cell binding to SW1222 Luc cells; IgG format.
The target is the same in assay [12]. In words: flow cytometry, LS 174T cells. Background: A flow cytometer gives signals particle by particle.
Assay [13] has the same target. Nature of the assay: flow cytometry, SW 1222 cells.
The target is the same in assay [14]. Nature of the assay: flow cytometry, Colo 205 cells; Colo 205 cells.
For assay [15] the target is unchanged. In words: FACS binding to LS174T cells (GPA33+); reference row.
Assay [16] shares this target. Nature of the assay: FACS binding to SW1222 cells (GPA33+); reference row.
Assay [17] shares this target. Nature of the assay: FACS binding to Colo205 cells (GPA33+); reference row.
For assay [18], the target named is T2, Human GPA33 (recombinant protein, …). In words: SPR (Biacore), human GPA33 immobilized on CM5 chip, two-state fit. In a few lines: (§3)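 GPA33 immobilized on CM5 chip; five 2-fold dilutions of huA33 IgG1 or huA33 bispecifics from 20 nM injected. Kinetics measured at 25 °C for huA33, at both 25 °C and 37 °C for bispecifics; sensorgrams fitted to a two-state binding model.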

The target is the same in assay [19]. In words: SPR (Biacore), human GPA33 immobilized on CM5 chip, two-state fit, ka1. The method, boiled down:
as §3

For assay [20] the target is unchanged. In words: SPR (Biacore), human GPA33 immobilized on CM5 chip, two-state fit, kd1. In a few lines: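 The off-rate (kd1) was determined by surface plasmon resonance against immobilised recombinant human GPA33, using a two-state binding model fit. Antibodies were tested on a CM5 chip in a Biacore T100 at five concentrations, from 20 nM in 2-fold serial dilutions. The parent IgG1 was measured at 25° C, and the bispecific formats at 25° C and 37° C.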

Assay [21] has the same target. In words: SPR (Biacore), human GPA33 immobilised on the chip; reference row. In a few lines: as §2
For assay [22], the target named is T1, Human GPA33 on GPA33+ colorectal cancer …. Nature of the assay: FACS titration on Colo205 cells, geometric mean MFI (the text prints 0.74 nM and calls it IC50).
For assay [23] the target is unchanged. In words: FACS titration on Colo205 cells, geometric mean MFI (same value as in FIG. 4A; the text prints 0.74 nM).

B1: BC016 (G3A H3L3) (bispecific antibody, human IgG1, kappa, N297A)
heavy: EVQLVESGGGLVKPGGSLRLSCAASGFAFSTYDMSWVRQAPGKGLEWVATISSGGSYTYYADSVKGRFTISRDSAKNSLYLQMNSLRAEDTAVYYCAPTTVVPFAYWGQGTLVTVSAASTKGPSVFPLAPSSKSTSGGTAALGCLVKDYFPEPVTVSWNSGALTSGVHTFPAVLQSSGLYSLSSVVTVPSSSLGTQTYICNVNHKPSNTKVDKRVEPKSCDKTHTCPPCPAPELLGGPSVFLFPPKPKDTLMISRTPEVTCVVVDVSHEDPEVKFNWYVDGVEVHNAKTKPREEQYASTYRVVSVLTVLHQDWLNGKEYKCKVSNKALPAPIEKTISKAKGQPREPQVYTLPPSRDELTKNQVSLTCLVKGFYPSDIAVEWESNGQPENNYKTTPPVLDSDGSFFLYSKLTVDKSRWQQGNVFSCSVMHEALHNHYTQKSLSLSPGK
light: DIQMTQSPSSLSTSVGDRVTITCKASQNVRTVVAWYQQKPGKAPKTLIYLASNRHSGVPSRFSGSGSGTEFTLTISNLQPEDFATYYCLQHWSYPLTFGSGTKLEVKRTVAAPSVFIFPPSDEQLKSGTASVVCLLNNFYPREAKVQWKVDNALQSGNSQESVTEQDSKDSTYSLSSTLTLSKADYEKHKVYACEVTHQGLSSPVTKSFNRGECTSGGGGSGGGGSGGGGSHVQLVESGGGLVQPGGSLRLSCAASGFSLTDYGVHWVRQAPGKGLEWLGVIWSGGGTAYNTALISRFTISRDNSKNTLYLQMNSLRAEDTAVYYCARRGSYPYNYFDAWGCGTLVTVSSGGGGSGGGGSGGGGSGGGGSGGGGSGGGGSQAVVTQEPSLTVSPGGTVTLTCGSSTGAVTASNYANWVQQKPGQCPRGLIGGHNNRPPGVPARFSGSLLGGKAALTLLGAQPEDEAEYYCALWYSDHWVIGGGTKLTVLG
notes: GPA33xDOTA IgG-[L]-scFv; The anti-DOTA scFv is fused to the C-terminus of the light chain
As to B1, the EC50 (in general, the midpoint of the concentration-response curve) in assay [1] was found to be 0.74 nM; in assay [2] it was 0.65 nM; in [3], 0.35 nM. Also, the Kd in assay [4] and in assay [8] was 0.00792 nM each time. Besides, the “Fold change of KD (relative to BC015, lower is better)” value in assay [5] is 0.07. Also, the kon (as a rule, the rate constant with which the complex forms) in assay [6] stood at 5.5e+06 M⁻¹ s⁻¹. Further, the koff (usually the first-order rate constant of dissociation) in [7] turned out to be 0.000511 s⁻¹.

B2: Humanized A33 antibody with variable heavy chain VH1 and variable light chain VK4 (antibody, IgG1, V domains shown)
VH: EVQLVESGGGLVKPGGSLRLSCAASGFAFSTYDMSWVRQAPGKGLEWVSTISSGGSYTYYADSVKGRFTISRDNAKNSLYLQMNSLRAEDTAVYYCAPTTVVPFAYWGQGTLVTVSA
VL: DIQMTQSPSSLSASVGDRVTITCKASQNVRTVVAWYQQKPGKAPKTLIYLASNRHTGVPSRFSGSGSGTEFTLTISNLQPEDFATYYCLQHWSYPLTFGSGTKLEVK
notes: Mouse A33 was humanized as IgG1 and tested in IgG format; also called VH1/VK4; huA33 IgG1
Turning to B2, the Kd (commonly the concentration at which binding is half-saturated) in assay [9] turned out to be 0.168 nM. The EC50 was 0.503 µg/mL in assay [10] and 0.466 µg/mL in [11].

B3: TC170 (bispecific antibody)
chain: EVQLVESGGGLVKPGGSLRLSCAASGFAFSTYDMSWVRQAPGKGLEWVSTISSGGSYTYYADSVKGRFTISRDNAKNSLYLQMNSLRAEDTAVYYCAPTTVVPFAYWGQGTLVTVSAGGGGSGGGGSGGGGSGGGGSGGGGSGGGGSDIQMTQSPSSLSASVGDRVTITCKASQNVRTVVAWYQQKPGKAPKTLIYLASNRHTGVPSRFSGSGSGTEFTLTISNLQPEDFATYYCLQHWSYPLTFGSGTKLEVKRGGGGSGGGGSGGGGSGGGGSHVQLVESGGGLVQPGGSLRLSCAASGFSLTDYGVHWVRQAPGKGLEWLGVIWSGGGTAYNTALISRFTISRDNSKNTLYLQMNSLRAEDTAVYYCARRGSYPYNYFDAWGCGTLVTVSSGGGGSGGGGSGGGGSGGGGSGGGGSGGGGSQAVVTQEPSLTVSPGGTVTLTCGSSTGAVTASNYANWVQQKPGQCPRGLIGGHNNRPPGVPARFSGSLLGGKAALTLLGAQPEDEAEYYCALWYSDHWVIGGGTKLTVLGTPLGDTTHTSGKPLDGEYFTLQIRGRERFEMFRELNEALELKDAQAGKEPGGSGGAPHHHHHH
notes: Single chain: anti-GPA33 scFv, anti-DOTA (C825) scFv, p53 SADA domain; The copy number 4 comes from the p53 tetramerization domain; the self-assembling and disassembling state depends on concentration; also called GPA33 SADA (TC170); GPA33xDOTA SADA
As to B3, the values for the IC50 in [12] and in assay [13] were 0.31 nM and 1.65 nM, respectively. In addition, the EC50 in assay [14] amounted to 0.74 nM; in assay [22], 0.73 nM; in [23], 0.73 nM. For the same molecule, the “fold change of binding EC50 (relative to TC170, lower is better)” value in [15], in assay [16] and in assay [17] was 1 each time. Moreover, the Kd in assay [18] was 0.0158 nM. In assay [18], the ka2 was determined as 0.00646 s⁻¹. Also, the kd2 in assay [18] came out at 0.000538 s⁻¹. Also, in [19], the kon is 3.54e+06 M⁻¹ s⁻¹. The koff in assay [20] stood at 0.000728 s⁻¹. The “Fold change of KD (relative to TC170, lower is better)” value in assay [21] stood at 1.
